Article PMC11751504

What was measured:
[1] = target: SidF C-trim (residues 1-443) (Aspergillus fumigatus) (UniProt Q4WF55); experiment: SEC
[2] = target: SidF C-trim (residues 1-443) (Aspergillus fumigatus) (UniProt Q4WF55); experiment: SAXS

Substance: SidF C-trim (residues 1-443) (from UniProt Q4WF55 1-443) (domain or fragment)
- stoichiometry N [1]: 4
- stoichiometry N [2]: 2
